Our source for the activity values is US20150064789.

What all share (assay): cell_activity
For data set [1], the system named is CCR5 ZFN pair, L7a linker (artificial). The conditions noted are these: average of 2.
For data set [2], the system named is CCR5 ZFN pair, L6a linker (artificial). The conditions noted are these: average of 2.
Data set [3] has as its system CCR5 ZFN pair, wild-type ZC linker (8266 with partner) (artificial). The conditions noted are these: average of 2.
In data set [4] the test system is rat IgM ZFN pair, L7a linker (artificial). The conditions noted are these: rat C6 cells, CEL-I.
The test system of data set [5] is rat IgM ZFN pair, ZC linkers (artificial). The conditions noted are these: rat C6 cells, CEL-I.
Data set [6] has as its system mROSA ZFN pair, Wt/L7a linkers (artificial). The settings on record: Neuro2A, CEL-I; mock 0.4.
Data set [7] relates to mROSA ZFN pair, Wt/Wt linkers (artificial). The conditions noted are these: Neuro2A, CEL-I; replicates 23.2, 18.7; mock 0.4.

Consider “GTCATCCTCATCCTGGTTTAAACTGCAAAAG (double strand) [CCR5 target, 7 bp gap]”, for which the activity in data set [1] worked out at 39.6 % NHEJ; in data set [2] it was 5.1 % NHEJ. The substance CCR5 target, 4 bp gap returned an activity in data set [3] of 1.2 % NHEJ.

The substance “GTCATCCTCATCCTGAGTTTAAACTGCAAAAG (double strand) [CCR5 target, 8 bp gap]” showed an activity in data set [1] of 6.1 % NHEJ. rat IgM target, 6 bp gap: the activity stood at 2.43 % NHEJ in data set [4] and 1.93 % NHEJ in data set [5]. As to CCR5 target, 5 bp gap, the values for the activity in data set [2] and in data set [3] were 39.3 % NHEJ and 35 % NHEJ, respectively. CCR5 target, 6 bp gap: the figures for the activity in data set [1], in data set [2] and in data set [3] were 31.8 % NHEJ, 25.4 % NHEJ and 11.1 % NHEJ, respectively.

On to mROSA target, 6 bp gap, for which the activity in data set [6] was determined as 7.5 % NHEJ; in data set [7] it was 22.6 % NHEJ.
